1 substance from patent publication EP4667491A1 can be followed below.

The assay addresses human CNTN4 expressed on the cell surface (human) (UniProt Q8IWV2). Briefly: flow cytometry; IgG on human CNTN4-overexpressing HEK293 cells. In general terms: In flow cytometry, cells or beads pass a laser one at a time.

Chain of human CNTN4 expressed on the cell surface (human) (Q8IWV2 19-1000): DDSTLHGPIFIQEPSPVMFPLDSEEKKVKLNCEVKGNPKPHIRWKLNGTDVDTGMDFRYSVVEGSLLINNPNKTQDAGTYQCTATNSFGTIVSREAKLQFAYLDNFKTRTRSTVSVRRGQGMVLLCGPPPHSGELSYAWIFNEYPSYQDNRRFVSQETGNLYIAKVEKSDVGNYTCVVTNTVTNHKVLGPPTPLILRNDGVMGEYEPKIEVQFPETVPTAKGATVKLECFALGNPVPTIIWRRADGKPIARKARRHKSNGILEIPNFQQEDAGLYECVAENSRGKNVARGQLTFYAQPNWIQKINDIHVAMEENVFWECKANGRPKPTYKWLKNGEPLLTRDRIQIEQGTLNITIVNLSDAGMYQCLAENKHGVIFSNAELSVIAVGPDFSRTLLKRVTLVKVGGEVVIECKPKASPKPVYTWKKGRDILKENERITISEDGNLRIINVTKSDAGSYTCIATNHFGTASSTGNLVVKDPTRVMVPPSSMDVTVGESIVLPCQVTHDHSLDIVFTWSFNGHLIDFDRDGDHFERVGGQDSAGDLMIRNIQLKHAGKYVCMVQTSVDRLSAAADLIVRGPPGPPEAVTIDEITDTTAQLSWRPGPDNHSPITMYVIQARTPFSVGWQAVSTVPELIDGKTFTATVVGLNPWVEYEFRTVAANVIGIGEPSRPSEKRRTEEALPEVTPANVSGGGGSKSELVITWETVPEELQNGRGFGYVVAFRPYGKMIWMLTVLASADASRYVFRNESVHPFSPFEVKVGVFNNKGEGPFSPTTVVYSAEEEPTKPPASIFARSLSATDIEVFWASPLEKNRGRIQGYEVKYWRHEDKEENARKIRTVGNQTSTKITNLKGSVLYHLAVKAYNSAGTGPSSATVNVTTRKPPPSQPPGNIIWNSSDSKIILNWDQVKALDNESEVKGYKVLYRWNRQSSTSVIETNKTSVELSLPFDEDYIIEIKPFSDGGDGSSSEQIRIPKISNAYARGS

human IgG4 antibody (negative control) registered a Top MFI of 13 MFI.
